This sample holds only a part of the variants without activity.
B1: TPR 5TU (parent)
chain: GGAUCUUCUCGAUCUAACAAAAAAGACAAAUCUGCCACAAAGCUUGAGAGCAUCUUCGGAUGCAGAGGCGGCAGCCUUCGGUGGCGCGAUAGCGCCAACGUUCUCAACUAUGACACGCAAAACGCGUGCUCCGUUGAAUGGAGUUUAUCAUG

Variants of: B1
Assay: polymerase ribozyme fitness, log enrichment relative to wild type (log ratio); higher = more active; in vitro selection for triplet polymerase activity
How it was run: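 After PCR construction and transcription, each subunit's mutant library from a heterodimeric triplet polymerase ribozyme was annealed with a biotinylated primer, the partner subunit and triplets. Incubation was frozen, at −7 °C, and extended constructs were gel-excised, bound to streptavidin beads and amplified by RT-PCR, in one selection round done in triplicate. Fitness is the logarithm of a genotype's enrichment divided by that of the wild type, from inverse-variance-weighted replicate averages of Illumina-sequenced inputs and outputs. The base of the logarithm is 2, and genotypes needed ≥10 input reads and ≥1 read per output.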

Variant | polymerase ribozyme fitness (log ratio)
G42C U56A G84U A121C | ≤ -4.2
G42C G80C C93A U104A C108G U145A U146C | ≤ -4.2
G42A G62C C116G C125U A142U A150C | ≤ -4.2
C43A G58C C76A U102C G141A | ≤ -4.2
U44A G50A C79A C99U U102G C108U | ≤ -4.2
U44A G88C | ≤ -4.2
C43U G50C C75G C79G G84A | ≤ -4.2
A41U U82A A142C | -2.88
C43G G86U U139C | -4.11
U44G A91C G126A G143C | ≤ -4.2
G42C A49G C54G G83C C85U C96A | ≤ -4.2
C43U C96G | ≤ -4.2
G42U U45C C72U C85G A98G A106C G117U | ≤ -4.2
G42U A47G C99G C116U | ≤ -4.2
G42U G71U G88U G92C A97C A122G U134C | ≤ -4.2
C43U G46C G83U | ≤ -4.2
C43U G83U G92A | ≤ -4.2
G42A G84A | -3.95
A41U U55C C63U G86A | -2.8
U44G C75U A89G | ≤ -4.2
C43A G58C G81C C95U C96A A122U G126C G143C | ≤ -4.2

Variant | polymerase ribozyme fitness (log ratio)
G42U A73G U78G C93A U146A | ≤ -4.2
G42A G59A U102G | ≤ -4.2
G42A G50C U55A G84A G143U | ≤ -4.2
C43A C57G G84A | ≤ -4.2
U44A A49U C54U G59U G92A A106U | ≤ -4.2
G42A A47U U53G A64U G94U A120U | ≤ -4.2
C43U A47U G59A C75A C93U G126C G133A | ≤ -4.2
G42A A89G C93U C125U G141U | ≤ -4.2
C43G G50C G62A G84A G92C | ≤ -4.2
G42A U56A C93U | ≤ -4.2
U44A U144C | -3.62
C43U G81C G88A G133C | ≤ -4.2
G42A G50U U53A U55A G83A U90C U144A | ≤ -4.2
G42C A47G C57A C75G C125G | ≤ -4.2
G42C U44A C54G A91U C99U G143C U145C | ≤ -4.2
G42C U44G G88A A97C | ≤ -4.2
G42A C85U | ≤ -4.2
G42C A49G A138C | ≤ -4.2
G42U U44A C54A G88U | ≤ -4.2
G42C C99U | ≤ -4.2
G42A C43A U82A A98G | ≤ -4.2

Variant | polymerase ribozyme fitness (log ratio)
C43G C105A C123G U148A | ≤ -4.2
G42A U56A A60U C76A C96A U102G U127A G141U A150G | ≤ -4.2
C43U C75A C79U G86U C87U G117U A150C | ≤ -4.2
G42U U56A C75G A91U G126A U144A | ≤ -4.2
U44A C75G C96U | -4.08
U44A G62U G80C G140C | ≤ -4.2
G42A G48A G68A G86U C132A | ≤ -4.2
C43G C69A | ≤ -4.2
C43U G58A U90C C132A G143U | ≤ -4.2
G42U A98U U102G A120U C132G U135A A147C | ≤ -4.2
U44C C96U C103G A115C | -4.19
C43U C125G U151G | ≤ -4.2
U44A G80A A121U U144A | ≤ -4.2
C43A A49U G74A G86C C93A C105U U144A | ≤ -4.2
U44G U45G C72G U144C A147G | ≤ -4.2
U44G C54U C85G G117U A122U | ≤ -4.2
C43U U45A C63U G81A C95G U111A | ≤ -4.2
G42C C105G | ≤ -4.2
G42C U56G U144A | ≤ -4.2
U44G C54G C76G C85A | ≤ -4.2
U44C C85A A91U U127G | ≤ -4.2

Variant | polymerase ribozyme fitness (log ratio)
C43U G50U U109A A150U | ≤ -4.2
A41U U55A C85A A150U | -2.65
U44G G143C | ≤ -4.2
U44G G67U A91U A115U A120C | ≤ -4.2
U44G U135A | -3.83
C43U U56A C72A C85A | ≤ -4.2
C43U G68A G86U | ≤ -4.2
G42C U45A G48U A49C C75U C118G U144C | ≤ -4.2
U44A G46C C75G U102A A120U U130G | -3.99
U44A G48C C87A A115U C125A | ≤ -4.2
G42C G48A C75G C96U U104A | ≤ -4.2
U44G C51U G74A G94C A120U C149G | ≤ -4.2
G42A U55A | -3.81
G42C A60G C75G C105U A122G | -4.18
G42U U44G A60G G71A G86A A106U U134G U135C | ≤ -4.2
G42A A52G U61G G86A C114A | -3.88
G42C C95A A142C | ≤ -4.2
U44A U53A G58U G83U U102G A122U | ≤ -4.2
C43U A52C C57U G83A A89C | ≤ -4.2
C43A C63U U90A | ≤ -4.2
